Experimental data from patent publication US20060148746, “Nucleic acid inhibitors of glutamate receptors” (published 2006).

Target: GluR2Qflip AMPA receptor (homomeric channel) (UniProt P19491-2 P19491-2:22-883)
Test: inhibition; intrinsic KI, whole-cell current, competitive; pH 7.4, 22 C, -60 mV
Settings: tags: expressed in HEK-293S cells (co-transfected with GFP and SV40 large T antigen); chain copies: 4
Experimental: Glutamate, a natural neurotransmitter, was used as the activating ligand, and the resulting receptor response in a single cell was recorded. Recording electrodes were made from glass capillary pipettes and fire polished. The electrode resistance was ˜3M Ω when filled with the electrode solution. The electrode solution contained 110 mM CsF, 30 mM CsCl, 4 mM MaCl, 0.5 mM CaCl₂, 5 mM EGTA, and 10 mM Hepes (pH 7.4 adjusted by CsOH). The external bath solution contained 150 mM NaCl, 3 mM KCl, 1 mM CaCl₂, 1 mM MgCl₂ and 10 mM Hepes (pH7.4 adjusted by NaOH). The GFP fluorescence in transfected cells was visualized using an Axiovert S100 microscope with a fluorescent detection system from Carl Zeiss (Thornwood, N.Y.). The whole-cell current was recorded using an Axonpatch-200B amplifier at a cutoff frequency of 2-20 kHz by a built-in eight-pole Bessel filter and digitized at 5-50 kHz sampling frequency using a Digidata 1322A from Axon Instruments (Union City, Calif.). The data acquisition software was pCLAMP 8, also from Axon Instruments.
The present invention relates to the discovery and characterization of a group of water-soluble AMPA receptor inhibitors, which are RNA aptamers that can fold into unique three-dimensional structures that confer high affinity and specificity against biological targets. […]

Chain of GluR2Qflip AMPA receptor (homomeric channel) (P19491 other isoform, or with tags, fused parts or gaps): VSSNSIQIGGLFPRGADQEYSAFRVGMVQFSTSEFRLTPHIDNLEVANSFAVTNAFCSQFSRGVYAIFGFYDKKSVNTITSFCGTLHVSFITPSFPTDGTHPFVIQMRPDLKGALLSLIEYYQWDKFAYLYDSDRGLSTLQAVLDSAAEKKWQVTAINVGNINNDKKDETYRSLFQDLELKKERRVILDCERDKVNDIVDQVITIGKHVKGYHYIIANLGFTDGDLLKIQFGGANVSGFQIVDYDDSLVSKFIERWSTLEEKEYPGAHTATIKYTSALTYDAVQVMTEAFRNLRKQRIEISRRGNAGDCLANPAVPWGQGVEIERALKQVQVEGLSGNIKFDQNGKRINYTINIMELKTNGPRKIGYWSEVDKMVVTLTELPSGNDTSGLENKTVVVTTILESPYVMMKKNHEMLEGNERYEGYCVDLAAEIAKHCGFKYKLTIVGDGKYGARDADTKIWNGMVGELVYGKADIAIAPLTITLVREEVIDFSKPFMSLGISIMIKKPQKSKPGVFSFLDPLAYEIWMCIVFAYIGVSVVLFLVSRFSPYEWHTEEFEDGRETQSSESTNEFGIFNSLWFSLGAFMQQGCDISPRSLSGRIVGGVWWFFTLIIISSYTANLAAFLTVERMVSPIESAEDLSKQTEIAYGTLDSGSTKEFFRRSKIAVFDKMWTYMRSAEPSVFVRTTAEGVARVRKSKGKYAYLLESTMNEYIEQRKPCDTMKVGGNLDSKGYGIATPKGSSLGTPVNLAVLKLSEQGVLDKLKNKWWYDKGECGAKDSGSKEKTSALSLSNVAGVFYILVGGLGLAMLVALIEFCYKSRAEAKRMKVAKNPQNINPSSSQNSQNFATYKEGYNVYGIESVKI

B1: AN57 (57-nt minimal aptamer, M1+M2 mixture) (ssRNA)
RNA: GGGCGAAUUCACUGCCAUCUAGGCAGUAACCAGGAGUUAGUAGGACAAGUUUCGUCC
Ki: 133 nM
